Assay [1] concerns the target T1, human CD40 (human, UniProt P25942 21-277). Briefly: cell-based or functional assay.
In the next assay the target is T2, cynomolgus monkey CD40 (cynomolgus monkey).
T2 construct: whole, on cells; also called cyCD40
The experiment in a line: FACS, CHO-K1/cyCD40 cells. In a few lines:
(§1)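 Cells carrying bound test antibody were kept 1 h at 4° C in the dark, washed in cold PBS, then stained 30 min at 4° C with Alexa Fluor 488 goat anti-human IgG (H+L) (1:1000). Fluorescence signal was read by flow cytometry.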
A general note: In flow cytometry, cells or beads pass a laser one at a time.

The target in assay [2] is T1, human CD40. The experiment in a line: cell-based or functional assay. This is another data set of the same source.
Assay [3] has as its target T1, human CD40. Briefly: FACS, MDA-MB-231 cells.
For assay [4], the target named is T1, human CD40. The experiment in a line: FACS, Raji cells. An outline of the steps:
as §1

The target of assay [5] is T1, human CD40. Briefly: FACS, Raji cells. As to the method: The cells were incubated at 4° C. for 1 hours in the dark. After the incubation, the cells were rinsed twice by adding pre-chilled PBS at 100 μL/well, and centrifuged at 500 g at 4° C. for 5 minutes, and the supernatant was discarded. Then, a fluorescent secondary antibody (goat anti-human IgG (H+L) secondary antibody, Alexa Fluor® 488 conjugate, Invitrogen, #A11013, 1:1000 dilution) was added at 100 μL/well, and the cells were incubated at 4° C. for 30 minutes in the dark. The cells were washed twice with pre-chilled PBS at 200 μL/well, and centrifuged at 500 g at 4° C. for 5 minutes, and the supernatant was discarded. Finally, the cells were resuspended in pre-chilled PBS at 200 μL/well. The fluorescence signal values were read using a BD FACS CANTOII flow cytometer or ACEA NovoCyte flow cytometer, and the data were processed and analyzed using FlowJo v10 software (FlowJo, LLC).
Data processing and graphical analysis were performed using GraphPad Prism 8 software. The binding curve of the antibody to the target cell and parameters, such as EC₅₀ value were obtained by four-parameter nonlinear fitting.
The source holds these as a separate data set.

For assay [6], the target named is T1, human CD40. Briefly: FACS, CHO-K1/hCD40 cells. An outline of the steps:
as §1

In another assay the target is T3, cynomolgus monkey PD-L1 (cynomolgus monkey).
T3 construct: whole, on cells; also called cyPD-L1
Briefly: FACS, CHO-K1/cyPD-L1 cells. In a few lines: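 Binding of antibodies to PD-L1-expressing cells (1×10⁶ cells/mL in PBS/2% BSA), tested in 4-fold dilution series. Incubation 2 h at 4° C in the dark, then washes. Fluorescence read by flow cytometry.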

“And” between values parts separate entries of the source, which are not always exact repeats. Equal values may be shown once.

In general, EC50 refers to the concentration giving half of the maximal effect.

T1 sequence (P25942 21-277): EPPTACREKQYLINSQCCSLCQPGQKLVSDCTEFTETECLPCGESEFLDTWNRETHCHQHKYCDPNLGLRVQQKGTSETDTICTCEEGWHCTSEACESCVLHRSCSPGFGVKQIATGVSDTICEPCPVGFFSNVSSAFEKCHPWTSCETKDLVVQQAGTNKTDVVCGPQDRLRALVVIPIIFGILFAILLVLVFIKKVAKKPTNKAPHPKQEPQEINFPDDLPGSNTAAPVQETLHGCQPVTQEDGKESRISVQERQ

B1: Selicrelumab (antibody, human IgG2, kappa, V domains shown)
VH: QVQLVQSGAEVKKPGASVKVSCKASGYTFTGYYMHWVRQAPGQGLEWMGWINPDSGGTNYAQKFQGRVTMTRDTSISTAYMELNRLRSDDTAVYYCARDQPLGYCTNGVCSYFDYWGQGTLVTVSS
VL: DIQMTQSPSSVSASVGDRVTITCRASQGIYSWLAWYQQKPGKAPNLLIYTASTLQSGVPSRFSGSGSGTDFTLTISSLQPEDFATYYCQQANIFPLTFGGGTKVEIKR
notes: Positive control anti-CD40 antibody; also called PR001028
On to B1, for which, in the assay with human CD40 [1], the “EC50, HEK293-hCD40-NFκB reporter, + CHO-K1” value is 0.183 nM and 0.241 nM. Moreover, the “EC50, HEK293-hCD40-NFκB reporter, + CHO-K1/hPD-L1” value in the assay with human CD40 [1] was 0.155 nM and 0.205 nM. Moreover, the EC50 was found to be 4.74 nM with cynomolgus monkey CD40; 0.936 nM with human CD40 [3]; 3.02 nM with human CD40 [4]; 0.484 nM in the assay with human CD40 [5]; 2.58 nM with human CD40 [6]. For the same molecule, the “Maximum MFI” value with cynomolgus monkey CD40 is 53400 MFI; in the assay with human CD40 [4], 5170 MFI; with human CD40 [5], 2450 MFI; with human CD40 [6] it was 13900 MFI; in the assay with cynomolgus monkey PD-L1, 94 MFI. The “EC50, HEK293-hCD40-NFκB reporter, crosslinked (CHO-K1/hCD32B)” value in the assay with human CD40 [2] stood at 0.0413 nM. Moreover, in the assay with human CD40 [2], the “EC50, HEK293-hCD40-NFκB reporter, uncrosslinked (CHO-K1)” value is 0.163 nM. Also, the “Fold (EC50 in the absence of crosslinking/EC50 in the presence of crosslinking)” value in the assay with human CD40 [2] came to 3.94 fold.

Source of the values: patent publication US20250215089A1 (HARBOUR BIOMED SHANGHAI, published 2025).
